For this test, the target named is Endogenous β-catenin of SW480 human colon carcinoma cells (human) (UniProt P35222). Kind of test: cell-based or functional assay.

The record followed here is patent US20020045591A1, “Methods and therapeutic compositions for treating cancer” (priority 1998, published 2002).

Chain of Endogenous β-catenin of SW480 human colon carcinoma cells (human) (P35222 2-781): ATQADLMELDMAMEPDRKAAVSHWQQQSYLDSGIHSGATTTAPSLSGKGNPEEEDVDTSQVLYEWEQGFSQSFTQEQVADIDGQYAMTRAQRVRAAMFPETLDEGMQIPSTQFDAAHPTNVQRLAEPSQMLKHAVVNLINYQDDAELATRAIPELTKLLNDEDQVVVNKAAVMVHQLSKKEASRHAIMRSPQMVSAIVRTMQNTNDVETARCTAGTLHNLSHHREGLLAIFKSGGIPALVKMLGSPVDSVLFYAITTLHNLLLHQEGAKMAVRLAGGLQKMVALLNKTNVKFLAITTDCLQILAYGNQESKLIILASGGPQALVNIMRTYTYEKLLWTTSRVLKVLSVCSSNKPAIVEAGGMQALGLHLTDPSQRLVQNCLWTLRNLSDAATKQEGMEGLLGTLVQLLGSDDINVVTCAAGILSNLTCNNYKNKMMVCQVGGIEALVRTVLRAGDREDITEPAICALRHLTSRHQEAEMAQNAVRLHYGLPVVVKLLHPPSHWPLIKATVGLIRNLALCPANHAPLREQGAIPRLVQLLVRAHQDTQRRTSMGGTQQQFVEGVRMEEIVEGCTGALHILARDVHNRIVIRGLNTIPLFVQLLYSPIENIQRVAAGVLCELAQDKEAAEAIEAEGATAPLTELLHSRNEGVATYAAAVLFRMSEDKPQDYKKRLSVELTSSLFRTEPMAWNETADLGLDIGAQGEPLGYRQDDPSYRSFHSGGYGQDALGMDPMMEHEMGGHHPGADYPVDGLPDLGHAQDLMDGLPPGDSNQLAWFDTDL

“GFP-E72 (C-terminal 72 amino acids of mouse E-cadherin, residues 813-884, fused to the C-terminus of GFP) (from UniProt P09803 798-869)” came in with an inhibition of luciferase activity (LEF-1-driven transactivation) in SW480 cells of 60%.

As for “Cytoplasmic tail of N-cadherin (amino acids 752-912) fused to the C-terminus of GFP (from UniProt B2KI42 746-906)”, the inhibition of luciferase activity (LEF-1-driven transactivation) in SW480 cells turned out to be 80%.

Take “Cytoplasmic tail of mouse E-cadherin (amino acids 735-884) fused to the C-terminus of GFP (from UniProt P09803 720-869)”: the inhibition of luciferase activity (LEF-1-driven transactivation) in SW480 cells was 75%.

“IL2R/N-cadherin chimera (extracellular and transmembrane domains of IL2Rα fused to the intracellular domain of N-cadherin, amino acids 752-912)” showed an inhibition of TOPFLASH-responsive transcription (luciferase) in SW480 cells of 50%.

In the case of “GFP-N71 (C-terminal 71 amino acids of N-cadherin, residues 842-912, fused to the C-terminus of GFP) (from UniProt B0KW95 836-906)”, the inhibition of luciferase activity (LEF-1-driven transactivation) in SW480 cells is 70%.
